Positions of bridges follow the written chain, without caps; N, C: chain ends. Non-standard residues stand in square brackets, D forms with d. No end group written: not given here. *: point of attachment. Acetyl(2-(4-imidazolyl)) = O=C(Cc1c[nH]cn1)*; Aib = CC(C)(N)C(=O)O
T1: human GIP receptor (human, UniProt P48546 22-466)
T1 sequence (looked up): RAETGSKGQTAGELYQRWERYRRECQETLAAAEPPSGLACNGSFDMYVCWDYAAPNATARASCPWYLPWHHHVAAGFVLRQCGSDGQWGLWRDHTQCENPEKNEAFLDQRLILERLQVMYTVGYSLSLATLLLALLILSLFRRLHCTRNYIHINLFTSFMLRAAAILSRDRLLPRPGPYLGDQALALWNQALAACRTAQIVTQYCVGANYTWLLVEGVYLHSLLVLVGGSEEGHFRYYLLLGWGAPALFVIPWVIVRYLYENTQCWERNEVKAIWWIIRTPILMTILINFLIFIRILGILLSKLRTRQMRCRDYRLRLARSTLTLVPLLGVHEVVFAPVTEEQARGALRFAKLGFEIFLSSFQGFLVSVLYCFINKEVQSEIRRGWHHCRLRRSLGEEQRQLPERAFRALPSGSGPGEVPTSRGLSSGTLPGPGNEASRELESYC

B1: triple agonist of SEQ ID NO: 39 (peptide)
peptide: H[Aib]QGTFTSDYSKYLDGQHAQCFVAWLLAGGGPSSGAPPPS
B2: triple agonist of SEQ ID NO: 56 (peptide)
peptide: H[Aib]QGTFTSDYSKYLDEKRQKEFVNWLLAQC
modifications: bridge 16-20
B3: triple agonist of SEQ ID NO: 58 (peptide)
peptide: H[Aib]QGTFTSDYSKYLDEKRQKEFVQWLLNTKC
modifications: bridge 16-20
B4: triple agonist of SEQ ID NO: 34 (peptide)
peptide: H[Aib]QGTFTSDYSKYLDEKRQKEFVNWLLAQKC
modifications: bridge 16-20
B5: triple agonist of SEQ ID NO: 43 (peptide)
peptide: Y[Aib]QGTFTSDYSKYLDEKRAKEFVQWLLDHHCSSGQPPPS
modifications: bridge 16-20
B6: triple agonist of SEQ ID NO: 38 (peptide)
peptide: [Acetyl(2-(4-imidazolyl))][Aib]QGTFTSDKSSYLDERAAQDFVQWLLDGGPSSGAPPPSS
B7: triple agonist of SEQ ID NO: 60 (peptide)
peptide: {Acetyl(2-(4-imidazolyl))}-[Aib]QGTFTSDYSIAMDEKHCKDFVNWLLNTK
modifications: bridge 15-19
B8: triple agonist of SEQ ID NO: 37 (peptide)
peptide: H[Aib]QGTFTSDYSKYLDECRQKEFVQWLLNGGPSSGAPPPSG
modifications: bridge 16-20
B9: triple agonist of SEQ ID NO: 52 (peptide)
peptide: H[Aib]QGTFTSDYSKYLDEKRQKEFVQWLLDTC
modifications: bridge 16-20
B10: triple agonist of SEQ ID NO: 59 (peptide)
peptide: {Acetyl(2-(4-imidazolyl))}-[Aib]QGTFTSDYSICMDEKHQKDFVNWLLNTK
modifications: bridge 15-19
B11: triple agonist of SEQ ID NO: 49 (peptide)
peptide: {Acetyl(2-(4-imidazolyl))}-[Aib]QGTFTSDYSICMDEIHQKDFVNWLLNTK
modifications: bridge 15-19
B12: triple agonist of SEQ ID NO: 35 (peptide)
peptide: H[Aib]QGTFTSDYSIAMDEIHQKDFVNWLLNTKC
modifications: bridge 16-20
B13: triple agonist of SEQ ID NO: 6 (peptide)
peptide: H[Aib]QGTFTSDVSSYLDGQAAKEFVAWLLKGC
B14: triple agonist of SEQ ID NO: 36 (peptide)
peptide: H[Aib]QGTFTSDYSKYLCEKRQKEFVQWLLNGGPSSGAPPPSG
modifications: bridge 16-20
B15: triple agonist of SEQ ID NO: 51 (peptide)
peptide: H[Aib]QGTFTSDYSKYLDEKRQKEFVQWLLNTC
modifications: bridge 16-20

How the values were obtained:
Assay in all cases: cell-based or functional assay
human GLP-1 receptor = human GLP-1 receptor (human, UniProt P43220 24-463)
human GCG receptor = human GCG receptor (human, UniProt P47871 26-477)
human GIP receptor = target: T1, human GIP receptor

human GCG receptor, sequence (P47871 26-477): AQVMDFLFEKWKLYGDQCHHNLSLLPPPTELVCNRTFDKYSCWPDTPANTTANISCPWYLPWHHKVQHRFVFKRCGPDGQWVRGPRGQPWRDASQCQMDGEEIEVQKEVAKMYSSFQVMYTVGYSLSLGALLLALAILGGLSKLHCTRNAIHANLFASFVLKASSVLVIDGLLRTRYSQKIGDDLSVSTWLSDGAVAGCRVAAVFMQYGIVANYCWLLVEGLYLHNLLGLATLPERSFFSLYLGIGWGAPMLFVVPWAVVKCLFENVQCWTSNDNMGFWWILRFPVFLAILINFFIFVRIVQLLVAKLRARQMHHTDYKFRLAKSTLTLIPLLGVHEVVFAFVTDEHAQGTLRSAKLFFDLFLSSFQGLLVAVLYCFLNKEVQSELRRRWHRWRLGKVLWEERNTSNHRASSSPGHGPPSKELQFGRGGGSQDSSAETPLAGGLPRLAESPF

| Binder | In vitro Activity Compared to Native Peptide (%) vs. GLP-1 (human GLP-1 receptor) [%] | In vitro Activity Compared to Native Peptide (%) vs. Glucagon (human GCG receptor) [%] | In vitro Activity Compared to Native Peptide (%) vs. GIP (human GIP receptor) [%] |
| --- | --- | --- | --- |
| B1 | 13.9 | 0.53 | < 0.1 |
| B2 | 57.9 | 4.9 | 0.8 |
| B3 | 39.1 | 2.6 | 0.2 |
| B4 | 19.1 | 0.92 | 0.6 |
| B5 | 12.6 | 88.4 | 3.7 |
| B6 | 2.3 |  |  |
| B7 | 106 | < 0.1 | 8.2 |
| B8 | 236 | 6.21 | 2.2 |
| B9 | 44.1 | 7.5 | 0.3 |
| B10 | 40.3 | < 0.1 | 4 |
| B11 | 29.8 | < 0.1 | 3.3 |
| B12 | 7.5 | < 0.1 | 1.3 |
| B13 | 17 | < 0.1 | < 0.1 |
| B14 | 37.4 | 0.39 | 0.2 |
| B15 | 14.4 | 2 | 0.1 |

Source: US20230118307A1, “THERAPEUTIC USE OF LONG-ACTING CONJUGATE OF TRIPLE AGONIST HAVING ACTIVITIES TO ALL OF GLUCAGON/GLP-1/GIP RECEPTORS FOR LUNG DISEASE” (HANMI PHARM. CO., LTD., priority 2020, published 2023)
